This data set concerns the molecule itself. The data set is described as follows: MST.

B1: human ATE1 isoform 2 (arginyl-tRNA-protein transferase 1), recombinant (enzyme, UniProt O95260-2 1-518, looked up)
chain: MAFWAGGSPSVVDYFPSEDFYRCGYCKNESGSRSNGMWAHSMTVQDYQDLIDRGWRRSGKYVYKPVMNQTCCPQYTIRCRPLQFQPSKSHKKVLKKMLKFLAKGEVPKGSCEDEPMDSTMDDAVAGDFALINKLDIQCDLKTLSDDIKESLESEGKNSKKEEPQELLQSQDFVGEKLGSGEPSHSVKVHTVPKPGKGADLSKPPCRKAKEIRKERKRLKLMQQNPAGELEGFQAQGHPPSLFPPKAKSNQPKSLEDLIFESLPENASHKLEVRLVPVSFEDPEFKSSFSQSFSLYVKYQVAIHQDPPDECGKTEFTRFLCSSPLEAETPPNGPDCGYGSFHQQYWLDGKIIAVGVIDILPNCVSSVYLYYDPDYSFLSLGVYSALREIAFTRQLHEKTSQLSYYYMGFYIHSCPKMKYKGQYRPSDLLCPETYVWVPIEQCLPSLENSKYCRFNQDPEAVDEDRSTEPDRLQVFHKRAIMPYGVYKKQQKDPSEEAAVLQYASLVGQKCSERMLLFRN
modifications: red Tris-NTA dye on the labelled copy in MST
Consider B1, for which binding was put at a Kd of 8.5 µM.

(Values after PMC11283454 (Nature Communications, 2024).)
